Patent publication US20250090523A1, “PHARMACEUTICAL COMPOSITION OR DRUG KIT FOR ALLEVIATING OR TREATING FIBROTIC DISEASES, AND USE THEREOF” (SHANGHAI SYNVIDA BIOTECHNOLOGY CO. LTD., priority 2021, published 2025)

B1: LF11: anti-human Pear1 monoclonal antibody; VH SEQ ID NO: 2, VL SEQ ID NO: 18 (antibody, V domains shown)
VH: EVQLQQSGPELVKPGASMKISCKASGYSFTGYPMNWVKQTHGKNLEWIGLINPYNGGTSYNQKFKGKATLTVDKSSSTAYMELLSLTSDESAVYYCARGGVRPFDFWGQGTLVTVSA
VL: DIVITQSPAIMSASPGEKVTMTCSARSSVSYMYWYQQKPGSSPRLLIYDTSKLASGVPVRFSGSGSGTSYSLTISRMEAEDAATYFCQQWSSYPPTFGGGTKLEIK
B2: LF15: anti-human Pear1 monoclonal antibody; VH SEQ ID NO: 4, VL SEQ ID NO: 19 (antibody, V domains shown)
VH: EVQLQQSGPELVKPGASMKISCKASGYSFTGYTMNWVKQSHGENLEWIGVINPYNGGTSYNQKFKGKATLTVDKSFSTAYMEILSLTSEDSAVYYCSRGGGNSWFAYWGQGTLVTVSA
VL: DIQMTQTSSYLSVSLGGRVTITCKASDHINNWLAWYQQKPGNAPRLLISGATSLETGVPSRFSGSGSGTDYSLTITSLQTEDVATYYCQQYWSIPTFGGGTRLEIK
B3: LF16: anti-human Pear1 monoclonal antibody; VH SEQ ID NO: 5, VL SEQ ID NO: 20 (antibody, V domains shown)
VH: EVQLQQSGPELVKPGASMKISCKASGYAFTGYTMNWVKQSHGKNLDWIGVINGYNGGTSYNQKFKGKATLTVDKSSSTAYMELLSLTSEDSAIYYCARGGPTTGFVYWGQGTLVTVSA
VL: DIQMTQTSSSFSVSLGDRVTITCKASEDIYNRLAWYQQKPGNAPRLLISGATSLETGVPSRFSGSGSGKDYTLSITSLQTEDVATYYCQQYWSTPTFGAGTKLELK

Test system: IPF fibroblasts
Experiment: qPCR of extracellular matrix genes collagen 7a1 and matrix metalloproteinase inhibitor 1 in TGFβ-induced IPF fibroblasts
Type: cell-based, human
Conditions: Example 3, FIG. 4-6, TGFβ-induced IPF fibroblasts treated 48 hours, 18sRNA reference
Description: IPF fibroblasts of patients were purchased from the ATCC cell library.
IPF fibroblasts in Method 2 were collected. Total mRNA was extracted by Trizol method (Invitrogen, Carlsbad, CA) according to standard protocols. Complementary DNA was synthesized using reverse transcriptase (Takara). ABI7000 Real-time PCR instrument (Life Technologies) was used to detect gene expression and the PCR primer sequences are shown in Table 1. The 18sRNA gene was used as an internal reference.
Experimental groups including anti-Pear1 antibodies LF11, LF15, LF16 used alone, and their combinations with pirfenidone or nintedanib respectively, and experimental groups including pirfenidone or nintedanib used alone and a control group were established. TGFβ-induced IPF fibroblasts were treated for 48 hours, and then cells were collected. The qPCR method was used to detect the effect on the synthesis of extracellular matrix proteins collagen 7a1 and matrix metalloproteinase inhibitor 1 (primers are shown in Table 1).

Molecule | inhibition of expression of extracellular matrix proteins (collagen 7a1, matrix metalloproteinase inhibitor 1) in IPF fibroblasts
COC(=O)c1ccc2c(c1)NC(=O)/C2=C(\Nc1ccc(N(C)C(=O)CN2CCN(C)CC2)cc1)c1ccccc1 [nintedanib, reference compound] | inhibit the expression of extracellular matrix proteins in IPF fibroblasts to some extent
Cc1ccc(=O)n(-c2ccccc2)c1 [pirfenidone, reference compound] | inhibit the expression of extracellular matrix proteins in IPF fibroblasts to some extent
B1 | inhibit the expression of extracellular matrix proteins in IPF fibroblasts to some extent
B2 | inhibit the expression of extracellular matrix proteins in IPF fibroblasts to some extent
B3 | inhibit the expression of extracellular matrix proteins in IPF fibroblasts to some extent
